From PMC8509808, “Characterization of the Chimeric PriB-SSBc Protein” (International Journal of Molecular Sciences, 2021)

B1: dT55 (ssDNA)
DNA: TTTTTTTTTTTTTTTTTTTTTTTTTTTTTTTTTTTTTTTTTTTTTTTTTTTTTTT
B2: dT60 (ssDNA)
DNA: TTTTTTTTTTTTTTTTTTTTTTTTTTTTTTTTTTTTTTTTTTTTTTTTTTTTTTTTTTTT

Assays:
Settings in all cases: protein: recombinant; tags: none (tag-free); chain copies: 2; label: 5'-32P
[1] = molecular target: T1, PriB-SSBc (chimera KpPriB 1-98 fused to KpSSB 112-174) (Klebsiella pneumoniae, UniProt A6THB2 1-98+A6TGW7:112-174, internal_change); test: EMSA; monomer conc.; 1 complex; EMSA: 20 mM Tris-HCl pH 8.0, 100 mM NaCl, 25 C, 30 min, 1.7 nM 32P-ssDNA; 8% native PAGE in TBE at 4 C
[2] = molecular target: T1, PriB-SSBc (chimera KpPriB 1-98 fused to …); test: EMSA; monomer conc.; 2 complexes; EMSA: 20 mM Tris-HCl pH 8.0, 100 mM NaCl, 25 C, 30 min, 1.7 nM 32P-ssDNA; 8% native PAGE in TBE at 4 C
[3] = molecular target: T1, PriB-SSBc (chimera KpPriB 1-98 fused to …); test: EMSA; ND; up to 5 uM protein; EMSA: 20 mM Tris-HCl pH 8.0, 100 mM NaCl, 25 C, 30 min, 1.7 nM 32P-ssDNA; 8% native PAGE in TBE at 4 C

Row | Binder | apparent K (half saturation) [1] | further results
1 | TTTTTTTTTTTTTTTTTTTTTTTTTTTTTTTTTTTTTTTTTTTTTTTTTT (ssDNA) [dT50] | 290 ± 20 nM | –
2 | B1 | – | apparent K (half saturation) [2]: 330 ± 30 nM
3 | TTTTTTTTTTTTTTTTTTTTTTTTT (ssDNA) [dT25] | 1150 ± 120 nM | –
4 | TTTTTTTTTTTTTTTTTTTTTTTTTTTTTT (ssDNA) [dT30] | 940 ± 80 nM | –
5 | TTTTTTTTTTTTTTTTTTTTTTTTTTTTTTTTTTTTTTTT (ssDNA) [dT40] | 840 ± 60 nM | –
6 | TTTTTTTTTTTTTTTTTTTT (ssDNA) [dT20] | 2120 ± 180 nM | –
7 | B2 | – | apparent K (half saturation) [2]: 230 ± 20 nM
8 | TTTTTTTTTTTTTTT (ssDNA) [dT15] | – | binding result [3]: no binding
